These results are taken from publication doi:10.1101/2023.06.28.546941 (bioRxiv, 2023).

Series [1] addresses T1, MEF2 MADS plus MEF2 domain (amino acids 1-90) (Drosophila, UniProt P40791 1-90).
T1 sequence (looked up): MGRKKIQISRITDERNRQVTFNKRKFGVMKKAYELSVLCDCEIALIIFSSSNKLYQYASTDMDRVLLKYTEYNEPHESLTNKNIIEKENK
In words: pull-down.

Another series has as its target T2, MEF2 (UniProt P40791 1-540).
T2 sequence: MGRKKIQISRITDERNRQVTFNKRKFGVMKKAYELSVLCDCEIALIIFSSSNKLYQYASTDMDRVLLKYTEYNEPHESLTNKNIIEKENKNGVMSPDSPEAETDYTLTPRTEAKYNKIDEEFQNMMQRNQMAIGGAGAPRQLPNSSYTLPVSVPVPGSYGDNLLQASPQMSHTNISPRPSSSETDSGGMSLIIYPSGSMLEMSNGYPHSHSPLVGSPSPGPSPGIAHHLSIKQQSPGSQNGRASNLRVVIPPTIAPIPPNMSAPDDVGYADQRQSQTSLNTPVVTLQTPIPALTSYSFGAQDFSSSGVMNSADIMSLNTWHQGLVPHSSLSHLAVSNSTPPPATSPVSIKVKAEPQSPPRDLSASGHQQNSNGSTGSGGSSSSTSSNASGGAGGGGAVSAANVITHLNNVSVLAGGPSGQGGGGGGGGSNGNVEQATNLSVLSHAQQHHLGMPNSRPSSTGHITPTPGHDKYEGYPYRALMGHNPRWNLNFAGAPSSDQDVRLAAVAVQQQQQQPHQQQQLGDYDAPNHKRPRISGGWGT
Nature of the series: competition.

B1: MBP-fused Tin homeodomain (amino acids 301-360) (domain or fragment, Drosophila, UniProt P22711 301-360, looked up)
chain: KRKPRVLFSQAQVLELECRFRLKKYLTGAEREIIAQKLNLSATQVKIWFQNRRYKSKRGD
On to B1, for which the binding result in series [1] is listed as “binds”.

B2: M1+T1 M1mut (dsDNA)
DNA 1: GGTGTCGTCTGTTGAAGTGTGAACATTAATGCCTAGATCTAAAGCGATAAAA
DNA 2: GGTTTTATCGCTTTAGATCTAGGCATTAATGTTCACACTTCAACAGACGACA
As to B2, in the series with MEF2, the binding result is given as “no binding”.
